Reference: publication PMC5755706 (Nature structural & molecular biology, 2017)

What was measured:
human TRF2^TRFH (human) = human TRF2^TRFH (human) (UniProt Q15554); test: flow cytometry protein interaction assay
GST-TRF1^TRFH = biological target: T1, GST-TRF1^TRFH (human, UniProt P54274 62-265); test: pull-down
T1 sequence: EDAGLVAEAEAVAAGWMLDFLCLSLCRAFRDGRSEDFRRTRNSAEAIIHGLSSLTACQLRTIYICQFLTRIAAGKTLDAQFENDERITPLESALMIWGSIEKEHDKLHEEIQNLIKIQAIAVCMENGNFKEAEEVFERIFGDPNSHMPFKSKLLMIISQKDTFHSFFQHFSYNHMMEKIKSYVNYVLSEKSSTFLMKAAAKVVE

crystal structure = biological target: the molecule itself; test: crystal structure
[1] = biological target: T2, MBP-tagged TERB1^TRFB – TERB2^1-107 (human, UniProt Q8NA31;Q8NHR7); test: pull-down
T2 sequence 1: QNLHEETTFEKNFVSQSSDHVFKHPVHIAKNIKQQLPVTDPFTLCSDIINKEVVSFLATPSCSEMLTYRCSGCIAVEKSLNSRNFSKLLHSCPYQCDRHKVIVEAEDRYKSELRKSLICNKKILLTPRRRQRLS
T2 sequence 2: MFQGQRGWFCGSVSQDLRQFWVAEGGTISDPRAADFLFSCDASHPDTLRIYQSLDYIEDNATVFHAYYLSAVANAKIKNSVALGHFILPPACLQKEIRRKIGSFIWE

Sequence of human TRF2^TRFH (human) (Q15554 whole entry): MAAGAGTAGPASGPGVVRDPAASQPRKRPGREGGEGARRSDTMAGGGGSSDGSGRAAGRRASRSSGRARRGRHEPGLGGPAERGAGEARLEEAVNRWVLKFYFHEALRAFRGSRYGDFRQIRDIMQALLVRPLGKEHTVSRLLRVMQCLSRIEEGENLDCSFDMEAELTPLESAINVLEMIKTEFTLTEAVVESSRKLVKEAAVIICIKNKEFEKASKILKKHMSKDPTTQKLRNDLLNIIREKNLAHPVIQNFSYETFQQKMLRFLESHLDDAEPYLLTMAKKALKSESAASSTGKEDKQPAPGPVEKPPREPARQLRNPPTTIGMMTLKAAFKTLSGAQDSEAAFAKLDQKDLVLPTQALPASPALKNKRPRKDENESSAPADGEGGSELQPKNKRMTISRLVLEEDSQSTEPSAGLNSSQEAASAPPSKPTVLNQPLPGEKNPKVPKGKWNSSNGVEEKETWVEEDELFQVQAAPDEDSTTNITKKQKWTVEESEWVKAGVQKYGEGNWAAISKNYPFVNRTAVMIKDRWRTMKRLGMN

His-Smt3-TERB1^TBM R652E (from UniProt Q8NA31 643-656) (peptide)
relative IC50 (normalized to TERB1^TBM WT) (human TRF2^TRFH (human)): 1.05

His-Smt3-TERB1^TBM I645F (from UniProt Q8NA31 643-656) (peptide)
relative IC50 (normalized to TERB1^TBM WT) (human TRF2^TRFH (human)): 2.6

His-Smt3-TERB1^TBM T648A (from UniProt Q8NA31 643-656) (peptide)
relative IC50 (normalized to TERB1^TBM WT) (human TRF2^TRFH (human)): 0.4

His-Smt3-TERB1^TBM WT (from UniProt Q8NA31 643-656) (peptide)
relative IC50 (normalized to TERB1^TBM WT) (human TRF2^TRFH (human)): 1

His-Smt3-TERB1^TBM I645E (from UniProt Q8NA31 643-656) (peptide)
relative IC50 (normalized to TERB1^TBM WT) (human TRF2^TRFH (human)): 2.25

B1: TERB1^TRFB - TERB2^1-107 complex WT (complex)
chain 1: QNLHEETTFEKNFVSQSSDHVFKHPVHIAKNIKQQLPVTDPFTLCSDIINKEVVSFLATPSCSEMLTYRCSGCIAVEKSLNSRNFSKLLHSCPYQCDRHKVIVEAEDRYKSELRKSLICNKKILLTPRRRQRLS
chain 2: MFQGQRGWFCGSVSQDLRQFWVAEGGTISDPRAADFLFSCDASHPDTLRIYQSLDYIEDNATVFHAYYLSAVANAKIKNSVALGHFILPPACLQKEIRRKIGSFIWE
relative IC50 (normalized to TERB1^TRFB - TERB2^1-107 WT) (human TRF2^TRFH (human)): 1

B2: TERB1^TRFB - TERB2^1-107 I645F (complex)
chain 1: QNLHEETTFEKNFVSQSSDHVFKHPVHIAKNIKQQLPVTDPFTLCSDIINKEVVSFLATPSCSEMLTYRCSGCIAVEKSLNSRNFSKLLHSCPYQCDRHKVIVEAEDRYKSELRKSLICNKKFLLTPRRRQRLS
chain 2: MFQGQRGWFCGSVSQDLRQFWVAEGGTISDPRAADFLFSCDASHPDTLRIYQSLDYIEDNATVFHAYYLSAVANAKIKNSVALGHFILPPACLQKEIRRKIGSFIWE
relative IC50 (normalized to TERB1^TRFB - TERB2^1-107 WT) (human TRF2^TRFH (human)): 0.8

B3: TERB1^TRFB - TERB2^1-107 I645E (complex)
chain 1: QNLHEETTFEKNFVSQSSDHVFKHPVHIAKNIKQQLPVTDPFTLCSDIINKEVVSFLATPSCSEMLTYRCSGCIAVEKSLNSRNFSKLLHSCPYQCDRHKVIVEAEDRYKSELRKSLICNKKELLTPRRRQRLS
chain 2: MFQGQRGWFCGSVSQDLRQFWVAEGGTISDPRAADFLFSCDASHPDTLRIYQSLDYIEDNATVFHAYYLSAVANAKIKNSVALGHFILPPACLQKEIRRKIGSFIWE
relative IC50 (normalized to TERB1^TRFB - TERB2^1-107 WT) (human TRF2^TRFH (human)): 0.4

KKILLTPRRRQRLS [His-Smt3-TERB1^TBM WT]
binding result (GST-TRF1^TRFH): binds

KKFLLTPRRRQRLS [His-Smt3-TERB1^TBM I645F]
binding result (GST-TRF1^TRFH): binds

B4: human TRF1^TRFH (TRF homology domain of TRF1, aa 62-265) (domain or fragment)
chain: EDAGLVAEAEAVAAGWMLDFLCLSLCRAFRDGRSEDFRRTRNSAEAIIHGLSSLTACQLRTIYICQFLTRIAAGKTLDAQFENDERITPLESALMIWGSIEKEHDKLHEEIQNLIKIQAIAVCMENGNFKEAEEVFERIFGDPNSHMPFKSKLLMIISQKDTFHSFFQHFSYNHMMEKIKSYVNYVLSEKSSTFLMKAAAKVVE
modifications: biotin (biotin maleimide) on cysteines in the flow-cytometry bead assays; unlabelled in the pull-downs and the crystal
stoichiometry N (crystal structure): 2 | binding result [1]: binds
